Laboratory results taken from publication PMC3756332 (Scientific Reports, 2013).

Molecular target: T1, rabbit cytochrome P450 2B4 (rabbit, UniProt P00178 1-491)
T1 sequence (looked up): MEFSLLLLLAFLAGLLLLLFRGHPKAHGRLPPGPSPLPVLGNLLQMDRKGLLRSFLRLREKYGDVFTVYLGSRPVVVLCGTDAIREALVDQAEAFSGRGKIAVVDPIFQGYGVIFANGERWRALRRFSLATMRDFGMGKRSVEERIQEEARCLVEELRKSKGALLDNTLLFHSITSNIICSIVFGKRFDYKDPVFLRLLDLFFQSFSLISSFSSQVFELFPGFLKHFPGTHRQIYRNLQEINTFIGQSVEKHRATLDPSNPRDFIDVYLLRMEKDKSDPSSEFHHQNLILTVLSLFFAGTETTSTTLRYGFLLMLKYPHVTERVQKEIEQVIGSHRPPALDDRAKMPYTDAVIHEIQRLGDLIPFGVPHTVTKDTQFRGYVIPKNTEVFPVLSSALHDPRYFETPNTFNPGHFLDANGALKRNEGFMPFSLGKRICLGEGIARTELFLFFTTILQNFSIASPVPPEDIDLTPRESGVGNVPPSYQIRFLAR
Test: type I spectral change

B1: rabbit cytochrome b5 (natural protein, UniProt P00169 1-134, looked up)
chain: MAAQSDKDVKYYTLEEIKKHNHSKSTWLILHHKVYDLTKFLEEHPGGEEVLREQAGGDATENFEDVGHSTDARELSKTFIIGELHPDDRSKLSKPMETLITTVDSNSSWWTNWVIPAISALIVALMYRLYMADD
modifications: uniformly 15N-labeled (in the NMR experiments)
binding result: binds
